Reference: patent US8043804

B1: Flag-SIRT1 (protein)
chain: MADEAALALQPGGSPSAAGADREAASSPAGEPLRKRPRRDGPGLERSPGEPGGAAPEREVPAAARGCPGAAAAALWREAEAEAAAAGGEQEAQATAAAGEGDNGPGLQGPSREPPLADNLYDEDDDDEGEEEEEAAAAAIGYRDNLLFGDEIITNGFHSCESDEEDRASHASSSDWTPRPRIGPYTFVQQHLMIGTDPRTILKDLLPETIPPPELDDMTLWQIVINILSEPPKRKKRKDINTIEDAVKLLQECKKIIVLTGAGVSVSCGIPDFRSRDGIYARLAVDFPDLPDPQAMFDIEYFRKDPRPFFKFAKEIYPGQFQPSLCHKFIALSDKEGKLLRNYTQNIDTLEQVAGIQRIIQCHGSFATASCLICKYKVDCEAVRGDIFNQVVPRCPRCPADEPLAIMKPEIVFFGENLPEQFHRAMKYDKDEVDLLIVIGSSLKVRPVALIPSSIPHEVPQILINREPLPHLHFDVELLGDCDVIINELCHRLGGEYAKLCCNPVKLSEITEKPPRTQKELAYLSELPPTPLHVSEDSSSPERTSPPDSSVIVTLLDQAAKSNDDLDVSESKGCMEEKPQEVQTSRNVESIAEQMENPDLKNVGSSTGEKNERTSVAGTVRKCWPNRVAKEQISRRLDGNQYLFLPPNRYIFHGAEVYSDSEDDVLSSSSCGSNSDSGTCQSPSLEEPMEDESEIEEFYNGLEDEPDVPERAGGAGFGTDGDDQEAINEAISVKQEVTDMNYPSNKS
B2: Flag-SIRT2 (protein)
chain: MAEPDPSHPLETQAGKVQEAQDSDSDSEGGAAGGEADMDFLRNLFSQTLSLGSQKERLLDELTLEGVARYMQSERCRRVICLVGAGISTSAGIPDFRSPSTGLYDNLEKYHLPYPEAIFEISYFKKHPEPFFALAKELYPGQFKPTICHYFMRLLKDKGLLLRCYTQNIDTLERIAGLEQEDLVEAHGTFYTSHCVSASCRHEYPLSWMKEKIFSEVTPKCEDCQSLVKPDIVFFGESLPARFFSCMQSDFLKVDLLLVMGTSLQVQPFASLISKAPLSTPRLLINKEKAGQSDPFLGMIMGLGGGMDFDSKKAYRDVAWLGECDQGCLALAELLGWKKELEDLVRREHASIDAQSGAGVPNPSTSASPKKSPPPAKDEARTTEREKPQ

Experiments:
[1] = target: acetylated p53, P04637
acetylated p53, P04637, sequence (P04637 whole entry, looked up): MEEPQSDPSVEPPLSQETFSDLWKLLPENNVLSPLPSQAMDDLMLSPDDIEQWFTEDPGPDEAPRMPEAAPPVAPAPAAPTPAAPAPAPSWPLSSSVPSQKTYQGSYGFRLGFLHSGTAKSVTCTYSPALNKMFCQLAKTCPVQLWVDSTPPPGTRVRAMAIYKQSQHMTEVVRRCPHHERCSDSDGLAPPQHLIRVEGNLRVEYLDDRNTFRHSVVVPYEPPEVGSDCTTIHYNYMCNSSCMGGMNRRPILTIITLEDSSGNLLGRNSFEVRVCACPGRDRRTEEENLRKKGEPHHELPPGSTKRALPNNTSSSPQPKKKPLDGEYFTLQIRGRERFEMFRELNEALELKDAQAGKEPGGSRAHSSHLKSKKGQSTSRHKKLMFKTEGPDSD

[2] = target: acetylated tubulin

Protein	in vitro deacetylation assay (Western blot for acetylated p53) [1]	in vitro deacetylation assay [2]
B1	deacetylation of p53 was observed when the Flag-SIRT1 protein was incubated with acetylated p53	
B2		deacetylation of tubulin was observed when the purified SIRT2 protein was incubated with acetylated tubulin
